Data set [1] has as its target SufS (first binding site) (Escherichia coli) (UniProt P77444). The data set is described as follows: ITC. As to conditions: cited from earlier work.
Data set [2] concerns the target SufS (second binding site) (Escherichia coli) (UniProt P77444). The data set is described as follows: ITC. Conditions: cited from earlier work.
In a further data set the target is SufS (alone) (Escherichia coli, UniProt P77444). Conditions: covalent (Schiff base with K226).
The data set “SEC” concerns the molecule itself. As to the kind of experiment: SEC. For orientation: In gel filtration, larger molecules generally elute earlier.

A word on the Kd: it is the equilibrium constant for the complex coming apart. For the molecule SufE (from UniProt P76194), the figures for the Kd in data set [1] and in data set [2] were 4 µM and 300 µM, respectively.
As to `Cc1ncc(COP(=O)(O)O)c(C=O)c1O` [PLP], the “UV-Vis of PLP liberated from purified enzyme” value at SufS (alone) is “UV-Vis spectroscopic analysis of PLP liberated from wild-type and the variant enzymes”.

B1: SufS E96A (enzyme, E. coli)
chain: MIFSVDKVRADFPVLSREVNGLPLAYLDSAASAQKPSQVIDAEAEFYRHGYAAVHRGIHTLSAQATEKMENVRKRASLFINARSAEELVFVRGTTAGINLVANSWGNSNVRAGDNIIISQMEHHANIVPWQMLCARVGAELRVIPLNPDGTLQLETLPTLFDEKTRLLAITHVSNVLGTENPLAEMITLAHQHGAKVLVDGAQAVMHHPVDVQALDCDFYVFSGHKLYGPTGIGILYVKEALLQEMPPWEGGGSMIATVSLSEGTTWTKAPWRFEAGTPNTGGIIGLGAALEYVSALGLNNIAEYEQNLMHYALSQLESVPDLTLYGPQNRLGVIAFNLGKHHAYDVGSFLDNYGIAVRTGHHCAMPLMAYYNVPAMCRASLAMYNTHEEVDRLVTGLQRIHRLLG
modifications: PLP cofactor (89-97% PLP incorporation)
By stoichiometry N is commonly meant a count of units in the complex or per binding partner. For the molecule B1, the “stoichiometry N” value in the data set “SEC” came out at 2.

B2: SufS E250A (enzyme, E. coli)
chain: MIFSVDKVRADFPVLSREVNGLPLAYLDSAASAQKPSQVIDAEAEFYRHGYAAVHRGIHTLSAQATEKMENVRKRASLFINARSAEELVFVRGTTEGINLVANSWGNSNVRAGDNIIISQMEHHANIVPWQMLCARVGAELRVIPLNPDGTLQLETLPTLFDEKTRLLAITHVSNVLGTENPLAEMITLAHQHGAKVLVDGAQAVMHHPVDVQALDCDFYVFSGHKLYGPTGIGILYVKEALLQEMPPWAGGGSMIATVSLSEGTTWTKAPWRFEAGTPNTGGIIGLGAALEYVSALGLNNIAEYEQNLMHYALSQLESVPDLTLYGPQNRLGVIAFNLGKHHAYDVGSFLDNYGIAVRTGHHCAMPLMAYYNVPAMCRASLAMYNTHEEVDRLVTGLQRIHRLLG
modifications: PLP cofactor (89-97% PLP incorporation)
With B2, the “stoichiometry N” value in the data set “SEC” was 2.
